Assay [1] deals with T1, recombinant human IL-33 protein (residues 112 to 270) (ILC0701, ATGen Co. Ltd) (human, UniProt O95760 112-270).
T1 sequence: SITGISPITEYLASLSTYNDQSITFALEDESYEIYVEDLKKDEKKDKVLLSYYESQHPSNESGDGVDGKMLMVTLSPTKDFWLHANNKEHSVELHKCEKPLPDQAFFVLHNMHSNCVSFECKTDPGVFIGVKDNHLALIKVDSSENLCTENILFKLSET
Kind of assay: cell-based or functional assay.

Assay [2] has as its target T2, 6His-AviTag-linked cynomolgus monkey IL-33 (residues 112 to 269) (cynomolgus monkey, UniProt O95760 112-269 (human entry), biotin on the AviTag portion (BirA) in the SPR of Example 7; used without biotinylation in Example 10).
T2 chain: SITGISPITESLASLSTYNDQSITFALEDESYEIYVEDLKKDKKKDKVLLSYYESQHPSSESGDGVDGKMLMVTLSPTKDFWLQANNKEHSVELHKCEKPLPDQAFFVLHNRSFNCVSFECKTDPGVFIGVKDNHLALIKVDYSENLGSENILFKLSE
Kind of assay: cell-based or functional assay.

Assay [3] deals with T3, LEDESYEIYV (human, not fully specified (N-terminus)).
T3 construct: synthetic peptide
T3 peptide: LEDESYEIYV
Kind of assay: KinExA, alkaline-purified IgG, peptide. How it is done:
(§1) The mixture samples were incubated at a room temperature until the antigen-antibody reaction reached equilibrium. After the reaction reached equilibrium, the percentage of free anti-IL-33 antibody in each sample was analyzed using KinExA3200. The values of Kd were calculated by fitting the plot of percentages of anti-IL-33 antibody not bound to the human IL-33 protein (vertical axis) and concentrations of antigen (horizontal axis) to a theoretical formula, using a KinExA data analysis program (KinExA Pro Software v3.5.3, available from Sapidyne Instruments, Inc.). Beads for capturing the anti-IL-33 antibody were prepared by suspending 50 mg of Azlactone beads (Sapidyne) in 1 mL of coating solution (10 μg/mL human IL-33 protein (ILC0701, available from ATGen Co. Ltd), 50 mM sodium carbonate at pH of 9.6) and incubating the solution at a room temperature for one hour. The antibody for detection used was anti-human F(ab)′2-DyLight649 (Jackson, 309-495-006).
(§2) The anti-IL-33 monoclonal antibodies A10-1C04 and A25-3H04 bound to the epitope PEP14 as described in the Example 1. […] These peptides were synthesized, and the affinity with the alkali-purified antibodies was calculated as Kd by the KinExA experiment as in Example 9 (Table 14).
(In general: Kinetic exclusion samples the free partner from a solution-phase mixture.)

Assay [4] deals with T4, DQSITFALEDESYEIYVEDL (PEP14) (human, not fully specified).
T4 peptide: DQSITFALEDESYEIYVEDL
Kind of assay: KinExA, alkaline-purified IgG, peptide. The protocol:
as §1, §2

Assay [5] addresses T5, EDESYEIYV (human, not fully specified (N-terminus)).
T5 construct: synthetic peptide
T5 peptide: EDESYEIYV
Kind of assay: KinExA, alkaline-purified IgG, peptide. The protocol: as §1, §2

Assay [6] addresses T1, recombinant human IL-33 protein …. Kind of assay: KinExA in PBS, neutral-purified IgG. How it is done:
Each test antibody (IgG) (“antibody (IgG)” indicates an antibody having a molecular form of IgG; hereinafter, the same representation is used) was analyzed to confirm the affinity with the human IL-33 protein by measuring dissociation constant (Kd) between each test antibody and the human IL-33 protein in PBS by kinetic exclusion assay (KinExA) (KinExA3200, available from Sapidyne Instruments, Inc.). Mixture samples of a test antibody and a human IL-33 protein (ILC0701, available from ATGen Co. Ltd) were prepared. The human IL-33 protein was titrated to a constant concentration of test antibody (final concentration: several tens of pM to several hundreds of pM) over a wide concentration range of the human IL-33 protein (so that it covered the concentrations of the human IL-33 protein resulting from 12-step serial doubling dilutions, i.e. one- to 2048-fold, with the upper limit of final concentration set to several nM to several tens of nM). The mixture samples were incubated at a room temperature until the antigen-antibody reaction reached equilibrium. After the reaction reached equilibrium, the percentage of free anti-IL-33 antibody in each sample was analyzed using KinExA3200. The values of Kd were calculated by fitting the plot of percentages of anti-IL-33 antibody not bound to the human IL-33 protein (vertical axis) and concentrations of antigen (horizontal axis) to a theoretical formula, using a KinExA data analysis program (KinExA Pro Software v3.5.3, available from Sapidyne Instruments, Inc.). Beads for capturing the anti-IL-33 antibody were prepared by suspending 50 mg of Azlactone beads (Sapidyne) in 1 mL of coating solution (10 μg/mL human IL-33 protein (ILC0701, available from ATGen Co. Ltd), 50 mM sodium carbonate at pH of 9.6) and incubating the solution at a room temperature for one hour. The antibody for detection used was anti-human F(ab)′2-DyLight649 (Jackson, 309-495-006).

Where no end group is shown, it is not given here.

B1: A10-1C04 (IgG) (antibody, V domains shown)
VH: EVQLLESGGGLVQPGGSLRLSCAASGFTFSDYYMNWVRQAPGKGLEWVSSISRYSSYIYYADSVKGRFTISRDNSKNTLYLQMNSLRAEDTAVYYCARDIGGMDVWGQGTLVTVSS
VL: QSVLTQPPSASGTPGQRVTISCTGSSSNIGAVYDVHWYQQLPGTAPKLLIYRNNQRPSGVPDRFSGSKSGTSASLAISGLRSEDEADYYCQTYDSSRWVFGGGTKLTVL
notes: tested as neutral-purified and as alkaline-purified antibody; also called V1; IGN1
For orientation: Kd means a measure of binding affinity in units of concentration. On to B1, for which, in assay [1], the “IC50 of inhibition of IL-6 production by HUVEC (alkaline-purified IgG, human IL-33 100 ng/mL)” value was 0.35 µg/mL; the “inhibition of IFN-γ production by human PBMC (alkaline-purified IgG 10 ug/mL, IL-33 10 ng/mL, IL-12 10 ng/mL)” value came to 96.9%; the “inhibition of production of IL-5 and IL-13 by KU-812 cells (alkaline-purified IgG 1 ug/mL; IL-33 3 ng/mL with IL-3 and C5a)” value is at least 50%; the “percentage of inhibition (%) of IL-6 production by HUVEC (neutral-purified IgG 1 ug/mL, IL-33 100 ng/mL)” value is 67%. Moreover, the “IC50 of inhibition of IL-6 production by HUVEC (alkaline-purified IgG, cynomolgus monkey IL-33 100 ng/mL, not biotinylated)” value in assay [2] worked out at 0.43 µg/mL. Besides, the affinity in assay [3], expressed as Kd, was 386 nM. In addition, the Kd in assay [4] turned out to be 9 nM. The molecule further came in with a Kd in assay [5] of 2070 nM. The dissociation constant (Kd) in assay [6] came to 0.166 nM.

The values above are taken from patent publication US20240002495A1 (MITSUBISHI TANABE PHARMA, published 2024).
